This series can be described thus: soluble on expression in E. coli; label from the status in PepcDB or PDB records.
Take “MGHHHHHHSGEVKPEVKPETHINLKVSDGSSEIFFKIKKTTPLRRLMEAFAKRQGKEMDSLRFLYDGIRIQADQTPEDLDMEDNDIIEAHREQIGGMRTYLDLLQHVLDHGVDRDDRTGTGTRSVFGYQMRFDLEEGFPVLTTKKLHLRSIIHELLWFLKGDTNIAYLKENGVTIWDEWADENGDLGPVYGYQWRSWPAPDGRHIDQIANLLKMLHTNPQSRRLIVSAWNPALVDEMALPPCHCLFQFYVANGRLSCQLYQRSADIFLGVPFNIASYALLTMMIAQVTGLKPGEFIHTLGDAHIYSNHFEQARLQLTRTPKKLPVMHINPDVKDLFAFRFEDFRLDGYEADPTIKAPIAV”: the “soluble on expression in E. coli” value was “soluble”.

For “MGHHHHHHSHAESHLQSSLITASQFFEIWLHFDADGSGYLEGKELQNLIQELQQARKKAGLELSPEMKTFVDQYGQRDDGKIGIVELAHVLPTEENFLLLFRCQQLKSCEEFMKTWRKYDTDHSGFIETEELKNFLKDLLEKANKTVDDTKLAEYTDLMLKLFDSNNDGKLELTEMARLLPVQENFLLKFQGIKMCGKEFNKAFELYDQDGNGYIDENELDALLKDLCEKNKQDLDINNITTYKKNIMALSDGGKLYRTDLALILCAGDN”, the “soluble on expression in E. coli” value was “soluble”.

“MGHHHHHHSHALQVDISDALSERDKVKFTVHTKSSLPNFKQNEFSVVRQHEEFIWLHDSFVENEDYAGYIIPPAPPRPDFDASREKLQKLGEGEGSMTKEEFTKMKQELEAEYLAIFKKTVAMHEVFLCRVAAHPILRRDLNFHVFLEYNQDLSVRGKNKKEKLEDFFKNMVKSADGVIVSGVKDVDDFFEHERTFLLEYHNRVKDASAKSDRMTRSHKSAADDYNRIGSSLYALGT”: the “soluble on expression in E. coli” value is “not soluble”.

For the sequence “MGHHHHHHSHDFIPRGAFGKVYLAQDIKTKKRMACKLIPVDQFKPSDVEIQACFRHENIAELYGAVLWGETVHLFMEAGEGGSVLEKLESCGPMREFEIIWVTKHVLKGLDFLHSKKVIHH”, the “soluble on expression in E. coli” value is given as “not soluble”.

Take “MGHHHHHHSHIGSFPLPKGITREWVERNLHTKEYEEMVQRAFLMKAKVLDVPTYPQFRDMIEMFMQPIKANQVEPYLIDERKAVIPELEYVEKMSVEAVRVCITGPFELYYREFGGVIYEDILLNLAESVRRFVENAAKHENVVCISIDEPSLGIAPDLQPDEELLQKALDYKVKQDVQIHLHEPLYYEKILETSVDVIGIECAKKPENMDFIDAEAVASAEKKLRIGVARSDIDGIIAEFNALHGVNAWGNEELISLAIDEIEPVEKIAERISKAKERFGDLLAYIGPDCGLFSFPSQELALQLLENVRKAVRE”: the “soluble on expression in E. coli” value is listed as “not soluble”.

With “MGHHHHHHSHKIRVAHTPDADDAFMFYAMTHGKVDTWLEIEHVIEDIETLNRKAFNAEYEVTAISAHAYALLDDKYRILSAGASVGDGYGPVVVAKSEISLDGKRIAVPGRYTTANLLLKLAVEDFEPVEMPFDRIIQAVLDEEVDAGLLIHEGQITYADYGLKCVLDLWDWWSEQVKLPLPLGLNAIRRDLSVEVQEEFLRAMRESIAFAIENPDEAIEYAMKYSRGLDRERAKRFAMMYVNDYTYNMPESVDAALKKLYEMAEAKGLIKMPKLDILRL”, the “soluble on expression in E. coli” value is listed as “soluble”.

For “MGHHHHHHSHKVENFEAAVHFYGKAIELNPANAVYFCNRAAAYSKLGNYAGAVQDCERAICIDPAYSKAYGRMGLALSSLNKHVEAVAYYKKALELDPDNETYKSNLKIAELKLREAPSPTGGVGSFDIAGLLNNPGFMSMASNLMNNPQIQQLMSGMISGGNNPLGTPGTSPSQNDLASLIQAGQQFAQQMQQQNPELIEQLRSQIRSRTP”, the “soluble on expression in E. coli” value is given as “not soluble”.

As for “MGHHHHHHSHLRYMKESQVLLTLTNPVENLTHVTLFECEEGDPDDINSTAKVVVPPKELVLAGKDAAAEYDELAEPQDFQDDPDIIAFRKANKVGIFIKVTPQREEGEVTVCFKMKHDFKNLAAPIRPIEESDQGTEVIWLTQHVELSLGPLLP”, the “soluble on expression in E. coli” value was “soluble”.

On to “MGHHHHHHSHMAATSGTDEPVSGELVSVAHALSLPAESYGNDPDIEMAWAMRAMQHAEVYYKLISSVDPQFLKLTKVDDQIYSEFRKNFETLRIDVLDPEELKSESAKEKWRPFCLKFNGIVEDFNYGTLLRLDCSQGYTEENTIFAPRIQFFAIEIARNREGYNKAVYISVQDKEGEKGVNNGGEKRADSGEEENTKNGGEKGADSGEEKEEGINREDKTDKGGEKGKEADKEINKSGEKAM”, for which the “soluble on expression in E. coli” value is on record as “not soluble”.

In the case of “MGHHHHHHSHMAFILCPLTCPGECEGSTGKLECCLCLPSQWAVLTAAPHPYRWSQEAGRVGEGKIGKTGRPRPRQNSLSSLHFWSPVVMCL”, the “soluble on expression in E. coli” value was “not soluble”.

For the sequence “MGHHHHHHSHMAMRQTPLTCSGHTRPVVDLAFSGITPYGYFLISACKDGKPMLRQGDTGDWIGTFLGHKGAVWGATLNKDATKAATAAADFTAKVWDAVSGDELMTLAHKHIVKTVDFTQDSNYLLTGGQDKLLRIYDLNKPEAEPKEISGHTSGIKKALWCSEDKQILSADDKTVRLWDHATMTEVKSLNFNMSVSSMEYIPEGEILVITYGRSIAFHSAVSLDPIKSFEAPATINSASLHPEKEFLVAGGEDFKLYKYDYNSGEELESYKGHFGPIHCVRFSPDGELYASGSEDGTLRLWQTVVGKTYGLWKCVLPEEDSGELAKPK”, the “soluble on expression in E. coli” value is “not soluble”.

As for “MGHHHHHHSHMASETHNVKKRNFCNKIEDHFIDLPRKKISNFTNKNMKEVKKSPKQLAAYINRTVGQTVKSPDKLRKVIYRRKKVHHPFPNPCYRKKQSPGSGGCDMANKENELACAGHLPEKLHHDSRTYLVNSSDSGSSQTESPSSKYSGFFSEVSQDHETMAQVLFSRNMRLNVALTFWRKRSISELVAYLLRIEDLGVVVDCLPVLTNCLQEEKQYISLGCCVDLLPLVKSLLKSKFEEYVIVGLNWLQAVIKRWWSELSSKTEIINDGNIQILKQQLSGLWEQENHLTLVPGYTGNIAKDVDAYLLQLH”, the “soluble on expression in E. coli” value is “not soluble”.

In the case of “MGHHHHHHSHMAVEDEGLRVFQSVKIKIGEAKNLPSYPGPSKMRDCYCTVNLDQEEVFRTKIVEKSLCPFYGEDFYCEIPRSFRHLSFYIFDRDVFRRDSIIGKVAIQKEDLQKYHNRDTWFQLQHVDADSEVQGKVHLELRLSEVITDTGVVCHKLATRIVECQGLPIVNGQCDPYATVTLAGPFRSEAKKTKV”, the “soluble on expression in E. coli” value is listed as “not soluble”.

On to “MGHHHHHHSHMEFIVDSVDKTMHIGRQLGSLVNKGDILCLTGDLGTGKTHISKGIAEGLGIDEHITSPTFNIVNEYHSGRLTLYHFDVYRVNDPDEIEAIGFDEYIFGDGVSLIEWANYIEELIPEEYIHIKIEKLPDMGENFRKITINGYGDRYNYIKEIKE”, for which the “soluble on expression in E. coli” value was “not soluble”.

For the sequence “MGHHHHHHSHMEGSFSDGGALPEGLAEEAEPQGAAWSGDSGTVSQSHSSASGPWEDEGAEDGAPGRDLPLLRRAAAGYAACLLPGAGARPEVEALDASLEDLLTRVDEFVGMLDMLRGDSSHVVSEGVPRIHAKAAEMRRIYSRIDRLEAFVRMVGGRVARMEEQVTKAEAELGTFPRAFKKLLHTMNVPSLFSKSAPSRPQQAGYEAPVLFRTEDYFPCCSERPQL”, the “soluble on expression in E. coli” value is given as “not soluble”.

Take “MGHHHHHHSHMEKALLGACDCTQIVKPSGVHLKLVLRFSDFGKAMFKPMRQQRDEETPVDFFYFIDFQRHNAEIAAFHLDRILDFRRVPPTVGRIVNVTKEILEVTKNEILQSVFFVSPASNVCFFAKCPYMCKTEYAVCGNPHLLEGSLSAFLPSLNLAPRLSVPNPWIRSYTLAGKEEWEVNPLYCDTVKQIYPYNNSQRLLNVIDMAIFDFLIGNMDRHHYEMFTKFGDDGFLIHLDNARGFGRHSHDEISILSPLSQCCMIKKKTLLHLQLLAQADYRLSDVMRESLLEDQLSPVLTEPHLLALDRRLQTILRTVEGCIVAHGQQSVIV”: the “soluble on expression in E. coli” value is recorded as “soluble”.

Turning to “MGHHHHHHSHMEKCSVGGLELTEQTPALLGNMAMATSLMDIGDSFGHPACPLVSRSRNSPVEDDDDDDDVVFIESIQPPSISAPAIADQRNFIFASSKNEKPQGNYSVIPPSSRDLASQKGNISETIVIDDEEDIETNGGAEKKSSCFIEWGLPGTKNKTNDLDFSTSSLSRSKTKTGVRPFNPGRMNVAGDLFQNGEFATHHSPEMHLQRRLMSFFQ”, the “soluble on expression in E. coli” value is “soluble”.

In the case of “MGHHHHHHSHMFKNTFQSGFLSILYSIGSKPLQIWDKKVRNGHIKRITDNDIQSLVLEIEGTNVSTTYITCPADPKKTLGIKLPFLVMIIKNLKKYFTFEVQVLDDKNVRRRFRASNYQSTTRVKPFICTMPMRLDDGWNQIQFNLLDFTRRAYGTNYIETLRVQIHANCRIRRVYFSDRLYSEDELPAEFKLYLPVQNKAKQ”, the “soluble on expression in E. coli” value was “soluble”.

For the sequence “MGHHHHHHSHMFWRNPLPNIDHELQELLIDRGEDVPSEEEEEEENGFEDRKDDSDDDGGGWITPSNIKQIQQELEQCDVPEDVRVGCLTTDFAMQNVLLQMGLHVLAVNGMLIREARSYILRCHGCFKTTSDMSRVFCSHCGNKTLKKVSVTVSDDGTLHMHFSRNPKVLNPRGLRYSLPTPKGGKYAINPHLTEDQRFPQLRLSQKARQKTNVFAPDYIAGVSPFVENDISSRSATLQVRDSTLGAGRRRLNPNASRKKFVKKR”, the “soluble on expression in E. coli” value is “not soluble”.

As to “MGHHHHHHSHMGLQQEISLQPWCHHPAESCQTTTDMTERLSAEQIKEYKGVFEMFDEEGNGEVKTGELEWLMSLLGINPTKSELASMAKDVDRDNKGFFNCDGFLALMGVYHEKAQNQESELRAAFRVFDKEGKGYIDWNTLKYVLMNAGEPLNEVEAEQMMKEADKDGDRTIDYEEFVAMMTGESFKLIQ”, the “soluble on expression in E. coli” value is “soluble”.

“MGHHHHHHSHMHKSNFETLQHYLESQIIGQHDLVKQLLIALLADGHILVEGPPGLAKTRAVKSLSDCVEGDFHRIQFTPDLLPADLTGTDIFRPETGEFTFQSGPIFNSLILADEINRAPAKVQAAMLEAMAEKQVTAGRHTYALPELFLVMATQNPIEQEGTYPLPEAQLDRFLLHLEVDYPDAEHELAILRINRGEAKGECSIERPSLSQQDIFTARQEVLDIHMAEAIEQYIVRLVMATRRASEYDSELDKWLAMGVSPRATIALDRCARAHAWLAGRDFVSPEDVQAMAYPVLRHRLLLSYHAQAEGVTSNQVIDKLLNLVGSA”: the “soluble on expression in E. coli” value is on record as “soluble”.

In the case of “MGHHHHHHSHMIQPRLLADAIVLFTSSQEEVTLAVTPLNFCLKSSNEESMDLSNAVHSEMFVGSDEFDFFQIGMDTEITFCFKELKGILTFSEATHAPISIYFDFPGKPLALSIDDMLVEANFILATLADEQSRASSPQSLCLSQKRKRSDLIEKKAGKNVTGQALECISKKAAPRRLYPKETLTNISALENCGSPAMKRVDGDVSEVSESSVSNTEEVPGSLCLRKFSCMFFGAVSSDQQEHFNHPFDSLARASGSEEDMNNVCCRKEFNGSDAEYFCII”, the “soluble on expression in E. coli” value is “not soluble”.

Turning to “MGHHHHHHSHMKVGKNNFRPPPKVESSVVRIEPKNPPPPINFQEWDGLVRITFVRKNKTLSAAFKSSAVQQLLEKNYRIHCSVHNIIIPEDFSIADKIQQILTSTGFSDKRARSMDIDDFIRLLHGFNAEGIHFS”, the “soluble on expression in E. coli” value is “not soluble”.

“MGHHHHHHSHMLGSWPARTFHPGACVSRRPSAPWKHTASGKDSPDLRFSEHGVSQEFWAGGLVAVLEMTPSPSPWGTQEDPAGMCSLWVVGWCPCRGAGVRDLVLVHAGVWCKHVCAVQRDACGESRTPAPPRKGGAVTSVLCLFLIKTFPLFSYKFASCKQVHKDPPLVKSGFE”: the “soluble on expression in E. coli” value was “soluble”.

As to “MGHHHHHHSHMNTKTMRLPPRRVLTADKRKERDAFISSVTDNPPEIAKFPSPPPKLVPPPVNPISKKSSTAAAEPIGSNQLMLAGYLSHEYLTQGTLFGEQWNQARAQAESSKIKPSHTVEPAEECEPKRKRYREVANLLRSDGAQLPGIVNPAQLARFLKL”, the “soluble on expression in E. coli” value was “soluble”.

For the origin of these results see the DeepSol protein solubility set.
